Measurements: the supplement of paper PMC10724198
± gives the standard deviation of the averaged measurements.

test system: Saccharomyces cerevisiae; assay: protein stability index of tFT-peptide fusion (C-terminal peptide) (PSI (0-1 scale)); higher = more stable (slower turnover); conditions: genetic background: wild type; temperature: 30 C
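Also: PSI is a weighted mean of sequencing reads over stability bins, variants kept only with over 10 reads, mCherry proximal and sfGFP distal, peptide attached via GGGS linker.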

First: IKKKKKVRYIRI
Second: CFFLVLPPFPLF
The protein stability index of the first is higher: 0.705 ± 0.06 for the first, 0.518 ± 0.028 for the second.

Compared with VWGGNGRAASQL, GLGRRPGVGGVR is lower in protein stability index: 0.742 ± 0.019 for the first, 0.71 ± 0.0075 for the second.

First: PLLDEQCLGIDS
Second: KNTVRKCNGRMH
The protein stability index of the first is higher: 0.658 ± 0.015 for the first, 0.57 ± 0.063 for the second.

ADKNQQTVNWRR and QSGTRRRKRCSD are within error of each other in protein stability index: 0.6956 ± 0.0019 for the first, 0.693 ± 0.042 for the second.

CVFLGRMSFLAF and IRRGRQGGEHEK are within error of each other in protein stability index: 0.602 ± 0.03 for the first, 0.702 ± 0.097 for the second.

Compared with DFRAGPLPCRPP, MKPPIGGNKPGL is higher in protein stability index: 0.6952 ± 0.0041 for the first, 0.726 ± 0.017 for the second.

HPPPPAAKVAPV and TRLGWSWGFAHR are within error of each other in protein stability index: 0.629 ± 0.048 for the first, 0.719 ± 0.11 for the second.

PGGLSCPSPPTI and DVVGGCEKWWER are within error of each other in protein stability index: 0.676 ± 0.057 for the first, 0.734 ± 0.049 for the second.

Compared with PPPPSLPPPSRP, LPVPLFPLFLTS is lower in protein stability index: 0.7125 ± 0.0063 for the first, 0.573 ± 0.011 for the second.

AQHTGFMRELRR and ECGRWLGRGVRG are within error of each other in protein stability index: 0.7278 ± 0.0016 for the first, 0.735 ± 0.045 for the second.

First: PPPLPPPPHGVP
Second: PPRLLATVTRGT
The protein stability index of the first is higher: 0.6889 ± 0.0066 for the first, 0.654 ± 0.025 for the second.

ARRYVPPRWGSL and TFSWISGKPRHT are the same in protein stability index: 0.679 ± 0.065 for the first, 0.679 ± 0.041 for the second.

YPRPIPSISRTS and GQVSVGAVGSFE are within error of each other in protein stability index: 0.731 ± 0.053 for the first, 0.642 ± 0.097 for the second.

First: GGGGGGGGVVVR
Second: PPPRTPGCPIPP
The protein stability index of the first is higher: 0.686 ± 0.016 for the first, 0.5737 ± 0.0032 for the second.

Going from ALFKESMLSTCA to QTAAGLKPMSNR, the protein stability index rises from 0.564 ± 0.022 to 0.777 ± 0.17.

SSPAGSRLPFGS and DKNRNKKKKYER are within error of each other in protein stability index: 0.75 ± 0.11 for the first, 0.641 ± 0.038 for the second.

FMACGVNIELRV and GAGCRDSSRRRT are within error of each other in protein stability index: 0.643 ± 0.0088 for the first, 0.687 ± 0.037 for the second.

Compared with IDRSHFAGVIVC, RYQMVTGPPQRH is higher in protein stability index: 0.5735 ± 0.0029 for the first, 0.6921 ± 0.004 for the second.

Compared with CLCLGGIWIVGG, ENRNKSYEISRP is higher in protein stability index: 0.63 ± 0.027 for the first, 0.7015 ± 0.0052 for the second.

LTILRSPLPSLS and SLATFRTLLPES are within error of each other in protein stability index: 0.701 ± 0.019 for the first, 0.667 ± 0.019 for the second.

PPPVVLPSTLLS and VRRAGVGEGITG are within error of each other in protein stability index: 0.6665 ± 0.0014 for the first, 0.671 ± 0.052 for the second.

YQAVRGRVFVAL and EELTVLCGLLKT are within error of each other in protein stability index: 0.638 ± 0.044 for the first, 0.64 ± 0.04 for the second.

PRFSFSGLPLPP and GGGGGGGGGGGG are within error of each other in protein stability index: 0.681 ± 0.11 for the first, 0.65 ± 0.04 for the second.

VHRKGGRLEILG and FGFIEGKRLGIT are within error of each other in protein stability index: 0.64 ± 0.033 for the first, 0.62 ± 0.041 for the second.

FLLPLKCRSTTN and SPLPPPRSSSPP are within error of each other in protein stability index: 0.712 ± 0.046 for the first, 0.76 ± 0.14 for the second.

Compared with LPAPGRPSPCRL, LPLYSFSVDFSF is lower in protein stability index: 0.809 ± 0.041 for the first, 0.576 ± 0.0059 for the second.

CGALSVLGWEPF and GDMVRVSYRGRR are within error of each other in protein stability index: 0.71615 ± 0.0001 for the first, 0.674 ± 0.053 for the second.

First: VSDLGRFVDRRV
Second: ESVPPILGQDPL
The protein stability index of the first is lower: 0.636 ± 0.029 for the first, 0.773 ± 0.035 for the second.

GRWRVEYWGFGG and CLLLPPLATFPR are within error of each other in protein stability index: 0.722 ± 0.025 for the first, 0.695 ± 0.017 for the second.

VSSVVTTSAIKR and GALGGDSGKGGG are within error of each other in protein stability index: 0.715 ± 0.027 for the first, 0.677 ± 0.15 for the second.

First: PPLPPSPLPLPP
Second: GMYRHEGQSWDL
The protein stability index of the first is lower: 0.664 ± 0.023 for the first, 0.7316 ± 0.0065 for the second.

First: SLHSPPHPPPHA
Second: VIGWACLCFGAI
The protein stability index of the first is higher: 0.673 ± 0.011 for the first, 0.555 ± 0.0063 for the second.

SASLPSPPFPSP and LSRMTNFKEKEG are within error of each other in protein stability index: 0.649 ± 0.054 for the first, 0.669 ± 0.03 for the second.

First: CSERGQVCAVVY
Second: PPACPYPFRPLP
The protein stability index of the first is lower: 0.553 ± 0.066 for the first, 0.668 ± 0.025 for the second.

RRLPPSRSAPFP and KKESNFVKKKEI are within error of each other in protein stability index: 0.698 ± 0.028 for the first, 0.741 ± 0.024 for the second.

SVALPLRQTPLH and SLQAYASALIHV are within error of each other in protein stability index: 0.667 ± 0.047 for the first, 0.687 ± 0.0098 for the second.

First: QRSGNEDWKDLL
Second: TLKGERHKKNKR
The protein stability index of the first is higher: 0.888 ± 0.024 for the first, 0.623 ± 0.035 for the second.

Going from RWPSVGFTAHNV to LPPHPPREAPPN, the protein stability index rises from 0.571 to 0.682 ± 0.083.

Going from NGTLQKGGLRRQ to KKKEENGGRGDE, the protein stability index rises from 0.6547 ± 0.00088 to 0.7008 ± 0.0041.

First: MPARGLAWLPVS
Second: RPGGRLLVWVGG
The protein stability index of the first is higher: 0.654 ± 0.064 for the first, 0.55 ± 0.038 for the second.

In the case of PRFFCSGSSPLR, the protein stability index is reported as 0.721 ± 0.026.
